These results are taken from paper PMC9805813 (Biochemistry, 2021).

In one data set the target is T1, PaParE1 toxin, wild type (Pseudomonas aeruginosa, UniProt Q9I708 1-93).
T1 sequence: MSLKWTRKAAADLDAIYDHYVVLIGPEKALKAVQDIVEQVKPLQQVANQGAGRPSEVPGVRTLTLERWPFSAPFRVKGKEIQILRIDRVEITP
As to the kind of experiment: BLI.

The data set “SEC-MALS” deals with the molecule itself. Put plainly: SEC-MALS.

Where a chain is given by its changes, count along the chain named. Names may count otherwise.

B1: mCherry fused to full length ParD1 (natural protein, Pseudomonas aeruginosa, UniProt Q9I707 1-75, looked up)
chain: MSTVVSFRADDALVAALDELARATHRDRPYHLRQALAQYLERQQWQVAAIDEGLADANAGRLLEHIEIEKRWGLQ
For the molecule B1, in the data set with PaParE1 toxin, wild type, the dissociation constant (Kd) turned out to be 0.225 ± 0.0068 nM.

B2: PaParD1 antitoxin, wild type, His-tagged (natural protein)
chain: B1 chain
Take B2: the “stoichiometry N” value in the data set “SEC-MALS” stood at 2.

B3: PaParD1 I68A, His-tagged (natural protein, Pseudomonas aeruginosa, UniProt Q9I707 1-75, looked up)
chain: B1 chain with I68A
For B3, in “SEC-MALS”, the “stoichiometry N” value was 2.

RQQWQVAAIDEGLADANAGRLLEHIEIEKRWGLQ (domain or fragment) [mCh-ParD1(42-75)] showed a Kd with PaParE1 toxin, wild type of 0.828 ± 0.55 nM.
